Data taken from the supplement of paper PMC9170038.

System: MS2 coat protein
Experiment: apparent KD of MS2 coat protein; designed switch direction (-1 OFF switch, 1 ON switch): -1; higher = weaker reporter binding
Procedure, shortened: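 Transcription of designed RNA switches on Illumina chips was done by stalled E. coli RNA polymerase. SNAP-549-labelled MS2 coat protein was then titrated in doubling steps from 0.7 or 1.5 nM to 3 µM, with steps of 0.8–1.5 h at the lowest and 10–20 min at the highest concentration. The per-design median over clusters of curve-fitted normalised fluorescence is reported as apparent KD.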

[1] = input ligand: microRNA oligo, concentration not stated
[2] = Eterna round: R95, input ligand: microRNA oligo, concentration not stated
[3] = Eterna round: R95, input ligand: FMN 200 uM
[4] = Eterna round: R95, input ligand: none

Sequence | apparent KD of MS2 coat protein [1] [nM] | apparent KD of MS2 coat protein (input ligand: FMN 200 uM) [nM] | apparent KD of MS2 coat protein (input ligand: none) [nM] | apparent KD of MS2 coat protein [2] [nM] | other results
GUCAGCUCGUCAGGAUAUACAUGAGGAUCACCCAUGUGAUCAAUAGCAGCUUCGGCUGCAUUAAUGUAGAAGGGACGAGCUGAU [ENG2/5-B2] (Eterna round: R96, puzzle: Exclusion NG 2) | 168 |  |  |  | 
GGGUUUGGAGGAUAUACAUGAGGAUCACCCAUGUACCCGGGCCCUAUUGGGUUUGGGUGUAGAAGGCCGGGCCC [-33.9, -31.3 kcal, A 19%, 5bbis,5b] (Eterna round: R97, puzzle: Exclusion 3) |  | 20.4 | 17.7 |  | 
AUAUAGAUGGUCAGGAUAUGCUAGUGGUAACAGUAGCAGAAGGGACAUGAGGAUCACCCAUGUAGAUCCUGCUC [Brourd's EX4 #13] (Eterna round: R97, puzzle: Brourd's mod of Exclusion 4) |  | 33.5 | 21.1 |  | 
UGAUCUAGCGGAGGAUAUACAUGAGGAUCACCCAUGUAAUGGUGACGUGCGUACAUGUCACCUGUGUAGAAGGCCGCUAGAUCU [JL ENG2 3.57] (Eterna round: R96, puzzle: Exclusion NG 2) | 15.6 | 11.3 | 16 |  | 
UUUUUAUAACAAGGAUAUACUAAACAUGAGGAUCACCCAUGUAAUAUUAUGAGUGAGAGAGAUAAGUAGAAGGUGUAUUAUUUU [JMF solution 3] (Eterna round: R96, puzzle: Exclusion NG 2) | 99.6 |  |  |  | 
AAAAGCUUUUUAAAAAAAAACAUGAGGAUCACCCAUGUUAAAAAAUAUAAGGUGAUAAAAAAUUGUCAAAAAAAAAA [Jieuxbot 008 - Jieux - Sensor v2, turn-off variant] (Eterna round: R96, puzzle: Sensor v2, turn-off variant) | 148 | 129 | 108 |  | 
GGCUGACAUGUAGGAUAUCUGCACGUUUAGUGCAGAGAAGGACAUGAGGAUCACCCAUGUAUAGCGACUUCGGUCGCAACAGCC [ENG1/2-A2] (Eterna round: R96, puzzle: Exclusion NG 1) | 31.6 | 115 | 48.3 |  | 
UCAUGGUAGCAGGAUAUGCUUGUAAUUUUUUAUGCAGAAGGGCUUACAUGAGGAUCACCCAUGUGUUAGGUCUA [JR_E6_Sub069] (puzzle: Exclusion 6) |  |  |  | 45.2 | 
CAGGAUAGAGGAUAUACAUAGAUACAGAUUCAUGUGGUCCUACAUGAGGAUCACCCAUGUAGAAGGCUAUCCUG [Fiskers Ex 2 - 22] (puzzle: Exclusion 2) |  |  |  | 180 | 
UUUUAACAUGAGGAUCACCCAUGUGAGGAUAUCGAAAUUUAUAUUUAUAUUUAUAAUUCGAGAAGGCACAUUUU [JMF 93] (puzzle: Exclusion 1) |  |  |  | 181 | 
UUUUUGUCAGGAUAUGACUAGAUGCACGUUAGUGUGUUUACUUAGAAGGGACAUGAGGAUCACCCAUGUAUUCC [Bring Us a Shrubbery-14] (puzzle: Exclusion 4) |  |  |  | 26.4 | 
UGUUGUUACGUAGGAUAUUGUCAACAGGCAAUAGGAUAUGCGAAAGCAGAAGGAUCGCCAACAGGCGAGAAGGACGGGUUAACA [pwkr exNG2 2xF7 2xFMN.2] (Eterna round: R96, puzzle: Exclusion NG 2) | 771 | 849 | 134 |  | 
UGUUAUAGAGGAUAUGCGUGAAAAUAGAUUCAUGGAAAUUUACAUGAGGAUCACCCAUGUAGAAGGCUGUGAUU [LRO-Excl2-15-mod 090 by JR] (Eterna round: R97, puzzle: Exclusion 2) |  | 14.8 | 14.7 |  | 
CCAAGCUGUGUGAGGAUAUGCUGGACCUUGGUUCAGCAGAAGGCACAUGAGGAUCACCCAUGUGAAAAGCUUGG [Mat - Exclusion 4 - JL Mod - D94] (puzzle: Brourd's mod of Exclusion 4) |  |  |  | 16.6 | apparent KD of MS2 coat protein [3]: 47.5 nM; apparent KD of MS2 coat protein [4]: 16.4 nM
CCUCGACAUGAGGAUCACCCAUGUCAGGAUAUUGUGUCUCGGGUUUUUUACCGAUAGGCAAGAAGGGAUGUGUG [LRO-Excl1-13] (puzzle: Exclusion 1) |  |  |  | 21.5 | 
CCUCUGUGAGGAUAUGGGCCCGGGCCCGUGAGGGCCCGGGCCCAGAAGGCACAUGAGGAUCACCCAUGUGGCUU [Energy optimization 2] (Eterna round: R97, puzzle: Exclusion 4) |  | 94.4 | 20 |  | 
UAAGUUGUGGUAGGAUAUACUUUAAAUUUCUCUAUCCAUACAUGAGGAUCACCCAUGUUUACAUUGUAGAAGGACCUUUUUGUU [JR_ExcNG2_Sub058] (Eterna round: R96, puzzle: Exclusion NG 2) | 19.7 |  |  |  | 

Sequence | apparent KD of MS2 coat protein [1] [nM] | apparent KD of MS2 coat protein (input ligand: FMN 200 uM) [nM] | apparent KD of MS2 coat protein (input ligand: none) [nM] | apparent KD of MS2 coat protein [2] [nM] | other results
CACCGUUACAGAGGAUAUGUCACAUGAGGAUCACCCAUGUAAUAAAUGAGAAUUUCGAAUGUAACACAGAAGGCUGGAAUCGGC [Ostricism 76 - Jieux - Exclusion NG 2] (Eterna round: R96, puzzle: Exclusion NG 2) | 18.1 | 37.1 | 26.5 |  | 
CUCUAACACGCAGGAUAUGCAUCACCAUAAUUAGCAGAAGGGCGAAACACAUGAGGAUCACCCAUGUUGAGGAUCACCCAUGAC [Default title] (Eterna round: R96, puzzle: Exclusion NG 1) | 19.9 | 22.1 | 23.6 |  | 
CUUUUGUGAGGAUAUCAGUAGUAGAACAAUAGUACUACUACUGAGAAGGCACAUGAGGAUCACCCAUGUUCCUC [Fiskers Ex 4 Super stable 44 mod 2] (puzzle: Exclusion 4) |  |  |  | 52.3 | 
ACAAGCUUUUCGAUCCUCCACAUGAGGAUCACCCAUGUGCUCGACUUGUAAAGUACUAUCACGAAAGUGAUAGUACA [Sensor, turn off variant 1 v.1] (Eterna round: R97, puzzle: Sensor, turn-off variant 1) |  | 455 | 629 |  | 
AACAGUCUAGAGGAUAUGCUGGAUUAAUAUCUUGCAGAAGGCUGGACAUGAGGAUCACCCAUGUAAAUACUACC [Omei Ex6 A12] (Eterna round: R97, puzzle: Exclusion 6) |  | 94 | 31.9 |  | 
CAGGGUAGAGGAUAUACGUAGGUACAGAUCUGUGUGUUCCUACAUGAGGAUCACCCAUGUAGAAGGCUAGCCUG [LRO-Excl2-08] (puzzle: Exclusion 2) |  |  |  | 77.9 | 
AAAACGGGAGGAUAUCGUAUCGUACACAUGAGGAUCACCCAUGUCCGGUGCAUCCUCAUCCGAGAAGGCCCAUAAA [Inisrarier] (puzzle: Exclusion 5) |  |  |  | 31.4 | apparent KD of MS2 coat protein [3]: 25.8 nM; apparent KD of MS2 coat protein [4]: 25.9 nM
UCAUGUCCAGAGGAUAUGUAGCGGGAGACCGCAACAGAAGGCUGGACAUGAGGAUCACCCAUGUGCGCCUUCCA [jl-ex3-4.26 ViennaUCT mod] (Eterna round: R97, puzzle: Exclusion 6) |  | 21.8 | 17 |  | 
UUUUUUUGGCAAGGAUAUCCUGUGCGGUUCCGGCUCGUGUCUGUUACAUGAGGAUCACCCAUGUGGGAGAAGGUGCCUGUGGUU [Design 87] (Eterna round: R96, puzzle: Exclusion NG 2) | 36.8 | 82.8 | 32.8 |  | 
CUGAGCAGACGGAAAUCCAACAUGAGGAUCACCCAUGUCUCAAAAGCUUUUUGCUCGUCUUAUCCUCCUCUGUUCUC [Tiardia] (puzzle: Sensor v3, turn-off variant 1) |  |  |  | 138 | apparent KD of MS2 coat protein [3]: 24.1 nM; apparent KD of MS2 coat protein [4]: 21.1 nM
GUGUAACUACACGGGCUCAACAUGAGGAUCACCCAUGUCAUACACGCAAGCUUUCUGCUUGUCUUAUCUGUCCGUGA [Acela] (puzzle: Sensor v3, turn-off variant 1) |  |  |  | 12.5 | apparent KD of MS2 coat protein [3]: 13.2 nM; apparent KD of MS2 coat protein [4]: 10.4 nM
GCAGCAUAGUUUACUAACUGUUACAUGAGGAUCACCCAUGUUCAGGAUAUGGUCUGGAUUACAGGCCAGAAGGGAACAAGCUGC [Eli exng3 - 026] (Eterna round: R96, puzzle: Exclusion NG 3) | 8.42 | 7.64 | 11.3 |  | 
ACAUGUCAUCGAGGAUAUUGCACACAUGAGGAUCACCCAUGUAUUCGGUUGCUCUUGCGUGAGUUCGAGAAGGCGAUGUACAUU [Ex NG2 #85] (Eterna round: R96, puzzle: Exclusion NG 2) | 215 | 134 | 262 |  | 
CUUUUGCAACAAGCCAAUAACAUGAGGAUCACCCAUGUCCUGUUGAGGUCUUCCGUCGUUCUUGCUCACGUCUUACG [Eternabot (L1) Solution 50] (Eterna round: R97, puzzle: Sensor, turn-off variant 1) |  | 54.8 | 56.3 |  | 
AACAGUCUAGAGGAUAUGCUGGAUAAAUAUCUGGCAGAAGGCUGGACAUGAGGAUCACCCAUGUAAAUACUACC [Omei Ex6 A1b] (Eterna round: R97, puzzle: Exclusion 6) |  | 99.6 | 38.6 |  | 
GGUUCCUGAGGAUAUACAUGAGGAUCACCCAUGUCUAUAUCAGCAGACGAUGACACAAGUAGAAGGUAGAGGGC [Eternabot (L2) Solution 48] (Eterna round: R97, puzzle: Exclusion 3) |  | 15 | 10.4 |  | 
AGUUGGCGAGGAUAUACAUGAGGAUCACCCAUGUGAGAGAGACUAGUGAGGUCGAUUAGUAGAAGGCGCUGACA [Mat X3R4 m11] (Eterna round: R97, puzzle: Exclusion 3) |  | 455 | 29.3 |  | 
